Data taken from the RNAGym collection of RNA variant scans (doi:10.1093/molbev/msab373).

B1: Azoarcus group I ribozyme (parent)
chain: GUGCCUUGCGCCGGGAAACCACGCAAGGGAUGGUGUCAAAUUCGGCGAAACCUAAGCGCCCGCCCGGGCGUAUGGCAACGCCGAGCCAAGCUUCGGCGCCUGCGCCGAUGAAGGUGUAGAGACUAGACGGCACCCACCUAAGGCAAACGCUAUGGUGAAGGCAUAGUCCAGGGAGUGGCGAAAGUCACACAAACCGG

Variants of: B1
Experiment: reverse-splicing fitness (ratio to wild type); higher = more active; in vitro selection; Mg2+ level not given
Summary of the method: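 An in vitro group I ribozyme library with randomized positions was T7-transcribed and gel-purified. In triplicate, 10 pmol RNA in EPPS pH 7.5 was reacted with 50 pmoles of a 30-nt RNA substrate for 1 h at 37 °C across several added MgCl2 levels (1–48 mM), then stopped with EDTA. Products were reverse transcribed from a substrate-complementary primer, PCR-amplified and sequenced (HiSeq 4000). Fitness is a variant's read proportion after selection over that before, normalised to wild type.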

Variant	reverse-splicing fitness
A111G A145U C150G C169G	0.0152
A111G A145U C150G C169U	0.0229
A111G A145U C150G C169A	0.0108
A111G A145U C150G C169G U176C	0.00501
A111G A145U C150G C169G U176A	0.00712
A111G A145U C150G C169G U176G	0.00482
A111G A145C C169G U176G	0.00491
A111G A145C C169G U176A	0.0344
A111G A145C C169G U176C	0.0431
A111G A120U C150G C169U U176C	0.00437
A111G A120U C150G C169U U176A	0.00346
A111G A120U C150G C169U U176G	0.00256
A111G A145G C169A U176A	0.0226
A111G A145G C169A U176C	0.036
A111G A145G C169A U176G	0.00526
A111G A120U C150A U176A	0.0485
A111G A120U C150A U176G	0.0203
A111G A120U C150A U176C	0.0464
A111G A145C C150A C169G U176C	0.0114
A111G A145C C150A C169G U176G	0.00534
A111G A145C C150A C169G U176A	0.02
A111G A145U C150A C169A U176G	0.00565
A111G A145U C150A C169A U176C	0.00843
A111G A145U C150A C169A U176A	0.0121

Variant	reverse-splicing fitness
A111G A120U C150G U176G	0.00318
A111G A120U C150G U176C	0.0248
A111G A120U C150G U176A	0.0102
A111G A145C C150U C169G U176C	0.0204
A111G A145C C150U C169G U176A	0.0242
A111G A145C C150U C169G U176G	0.00586
A111G A120U A145G C169A U176A	0.00347
A111G A120U A145G C169A U176C	0.00372
A111G A120U A145G C169A U176G	0.0013
A111G A120U C150A	0.112
A111G A120U C150G	0.0688
A111G A120U C150U	0.538
A111G A145G C150U C169A U176G	0.00505
A111G A145G C150U C169A U176A	0.0193
A111G A145G C150U C169A U176C	0.0252
A111G A120U A145G C150U C169A U176G	0.00246
A111G A120U A145G C150U C169A U176C	0.00357
A111G A120U A145U C169A U176C	0.00348
A111G A120U A145U C169A U176G	0.00131
A111G A120U A145U C169A U176A	0.00236
A111G A120U A145U C150G C169U U176C	0.00372
A111G A120U A145U C150G C169U U176A	0.00269
A111G A120U A145U C150G C169U U176G	0.00216
A111G A145C C150A U176A	0.129

Variant	reverse-splicing fitness
A111G A145C C150A U176G	0.0755
A111G A145C C150A U176C	0.128
A111G A120U A145G C169G U176G	0.00189
A111G A120U A145G C169G U176C	0.0201
A111G A120U A145G C169G U176A	0.00934
A111G A120U A145G C150U U176A	0.237
A111G A120U A145G C150U U176C	0.285
A111G A120U A145G C150U U176G	0.0427
A111G A145G C169U	0.19
A111G A145G C169A	0.053
A111G A145G C169G	0.118
A111G A145G C150G U176G	0.0237
A111G A145G C150G U176A	0.111
A111G A145G C150G U176C	0.184
A111G A145G C150U C169U U176G	0.00616
A111G A145G C150U C169U U176A	0.0415
A111G A145G C150U C169U U176C	0.0611
A111G A120U C150A C169A U176C	0.00292
A111G A120U C150A C169A U176G	0.00195
A111G A120U C150A C169A U176A	0.00442
A111G A120U C150G C169G	0.0111
A111G A120U C150G C169A	0.00729
A111G A120U C150G C169U	0.0103
A111G A120U A145U C169A	0.00636

Variant	reverse-splicing fitness
A111G A120U A145U C169G	0.0912
A111G A120U A145U C169U	0.122
A111G A145U C150G C169U U176C	0.0148
A111G A145U C150G C169U U176A	0.00751
A111G A145U C150G C169U U176G	0.00488
A111G A120U A145U C150U C169U U176A	0.0131
A111G A120U A145U C150U C169U U176G	0.00321
A111G A120U A145U C150U C169U U176C	0.0168
A111G A145C C150U	0.688
A111G A145C C150A	0.229
A111G A145C C150G	0.45
A111G A120U A145U C150U U176C	0.279
A111G A120U A145U C150U U176G	0.0789
A111G A120U A145U C150U U176A	0.265
A111G A145G C150U C169G U176A	0.0289
A111G A145G C150U C169G U176C	0.0431
A111G A145G C150U C169G U176G	0.00595
A111G A145G U176G	0.333
A111G A145G U176A	0.751
A111G A145G U176C	0.779
A111G A145C C150G U176A	0.17
A111G A145C C150G U176C	0.212
A111G A145C C150G U176G	0.0319
A111G A120U C150U C169U U176G	0.0032

Variant	reverse-splicing fitness
A111G A120U C150U C169U U176A	0.016
A111G A120U C150U C169U U176C	0.02
A111G A145G C150U C169A	0.0452
A111G A145G C150U C169G	0.101
A111G A145G C150U C169U	0.168
A111G A145G C150G C169A U176A	0.0122
A111G A145G C150G C169A U176C	0.0135
A111G A145G C150G C169A U176G	0.00761
A111G A145G C150G C169U U176A	0.011
A111G A145G C150G C169U U176C	0.0172
A111G A145G C150G C169U U176G	0.00609
A111G A120U A145U C150U C169A U176C	0.0026
A111G A120U A145U C150U C169A U176A	0.00375
A111G A120U A145U C150U C169A U176G	0.00175
A111G A120U C150U C169G	0.0472
A111G A120U C150U C169U	0.0666
A111G A120U C150U C169A	0.00587
A111G A120U U176G	0.164
A111G A120U U176A	0.432
A111G A120U U176C	0.445
A111G A145U	0.957
A111G A145C	0.876
A111G A145G	0.9
A111G A145C C150G C169U U176A	0.00841

Variant	reverse-splicing fitness
A111G A145C C150G C169U U176C	0.0138
A111G A145C C150G C169U U176G	0.00527
A111G A120U A145U C169G U176A	0.00865
A111G A120U A145U C169G U176C	0.0178
A111G A120U A145U C169G U176G	0.00196
A111G A120U A145G C150U C169G	0.0623
A111G A120U A145G C150U C169U	0.111
A111G A120U A145U C150G C169G	0.0082
A111G A120U A145U C150G C169A	0.00344
A111G A120U A145U C150G C169U	0.012
A111G A120U C169U U176C	0.0395
A111G A120U C169U U176A	0.0277
A111G A120U C169U U176G	0.00411
A111G A120U A145U C150A U176A	0.0447
A111G A120U A145U C150A U176G	0.018
A111G A120U A145U C150A U176C	0.0372
A111G A145U C150A U176C	0.237
A111G A145U C150A U176G	0.121
A111G A145U C150A U176A	0.224
A111G A145U C169A	0.0537
A111G A120U C169A U176G	0.00161
A111G A120U C169A U176A	0.0033
A111G A120U C169A U176C	0.00321
A111G A120U C150U C169A U176C	0.00257

Variant	reverse-splicing fitness
A111G A120U C150U C169A U176A	0.00336
A111G A120U C150U C169A U176G	0.00227
A111G A145C C150U C169A U176C	0.00832
A111G A145C C150U C169A U176A	0.0101
A111G A145C C150U C169A U176G	0.0059
A111G A145C C150G C169A U176A	0.0077
A111G A145C C150G C169A U176C	0.00646
A111G A145C C150G C169A U176G	0.00652
A111G A145U C150U	0.952
A111G A145U C150A	0.365
A111G A145U C150G	0.449
A111G A145U C150G U176G	0.0305
A111G A145U C150G U176A	0.17
A111G A145U C150G U176C	0.226
A111G A120U C150U C169G U176A	0.0102
A111G A120U C150U C169G U176G	0.00215
A111G A120U C150U C169G U176C	0.0106
A111G A145G C150U U176A	0.72
A111G A145G C150U U176C	0.713
A111G A145G C150U U176G	0.25
A111G A145G C150A C169U U176G	0.00641
A111G A145G C150A C169U U176C	0.0251
A111G A145G C150A C169U U176A	0.0202
